Test results published in PMC5027247 (2016).
Like-named read-outs stand apart in the source and are kept apart here.

Columns and labels:
Assay in all cases: ITC
[1] = biological target: T1, OPTN(26–119) E50K (human, UniProt Q96CV9 26-119, E50K)
Target sequence in this assay (Q96CV9 26-119 E50K): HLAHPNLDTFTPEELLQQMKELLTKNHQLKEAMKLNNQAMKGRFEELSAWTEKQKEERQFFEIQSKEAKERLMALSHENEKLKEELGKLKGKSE

[2] = biological target: T1, OPTN(26–119) E50K; remark: listed apart in the source
[3] = biological target: T2, TBK1 CTD V700Q (human, UniProt Q9UHD2 677-729, V700Q)
T2 sequence: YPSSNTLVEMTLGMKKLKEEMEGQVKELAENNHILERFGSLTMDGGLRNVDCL

[4] = biological target: T3, TBK1 CTD(E696K) (human, UniProt Q9UHD2 677-729, E696K)
T3 sequence: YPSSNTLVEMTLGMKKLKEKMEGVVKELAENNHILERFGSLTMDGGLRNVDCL

[5] = biological target: T2, TBK1 CTD V700Q; remark: listed apart in the source
[6] = biological target: T3, TBK1 CTD(E696K); remark: listed apart in the source

B1: TBK1 CTD (residues 677–729) (domain or fragment)
chain: YPSSNTLVEMTLGMKKLKEEMEGVVKELAENNHILERFGSLTMDGGLRNVDCL
**Q.** What does the source list for B1?
**A.** Kd [1]: 100 nM; Kd [2]: 100 nM

**Q.** Which Kd [3] does the source give for SSDNMQHAYWELKREMSNLHLVTQVQAELLRKLKTSTAIK (domain or fragment) [NAP1 TBD (residues 215–254)] here?
**A.** 6.06 µM

**Q.** And the Kd [4]?
**A.** 660 nM

**Q.** And the Kd [5]?
**A.** 6.06 µM

**Q.** And the Kd [6]?
**A.** 660 nM
